# Assay results taken from IntAct's records for PubMed 31653868.
# B1: Protein PIGBOS1 (Homo sapiens), A0A0B4J2F0 (parent)
# chain: MFRRLTFAQLLFATVLGIAGGVYIFQPVFEQYAKDQKELKEKMQLVQESEEKKS
# partner: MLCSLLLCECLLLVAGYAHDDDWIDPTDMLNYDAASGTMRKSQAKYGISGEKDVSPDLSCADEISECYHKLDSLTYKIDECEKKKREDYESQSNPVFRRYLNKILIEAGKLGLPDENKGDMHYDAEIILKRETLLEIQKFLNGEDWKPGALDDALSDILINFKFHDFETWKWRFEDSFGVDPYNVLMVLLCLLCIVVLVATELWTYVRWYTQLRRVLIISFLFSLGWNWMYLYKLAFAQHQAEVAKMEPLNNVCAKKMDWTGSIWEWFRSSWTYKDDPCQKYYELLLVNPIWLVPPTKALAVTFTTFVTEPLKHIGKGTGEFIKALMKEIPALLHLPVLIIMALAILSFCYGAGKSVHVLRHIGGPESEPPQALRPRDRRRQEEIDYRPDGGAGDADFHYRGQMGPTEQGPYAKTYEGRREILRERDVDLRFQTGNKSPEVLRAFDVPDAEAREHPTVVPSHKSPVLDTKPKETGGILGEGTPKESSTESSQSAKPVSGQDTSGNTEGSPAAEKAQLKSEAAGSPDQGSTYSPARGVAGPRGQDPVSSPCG
# Variants of: B1
# Details: with clcc1_human CLCC1, Q96S66
row,effect of a mutation on the interaction,Variant
1,decreasing interaction strength,MFRRLTFAQLLFATVLGIAGGVYIFQPVFEQYAAAAKELKEKMQLVQESEEKKS [K34A;D35A;Q36A]
2,with no effect,MFRRLTFAQLLFATVLGIAGGVYIFQPVFEQYAKDQKELAAAMQLVQESEEKKS [K40A;E41A;K42A]
3,with no effect,MFRRLTFAQLLFATVLGIAGGVYIFQPVFEQYAKDQKELKEKMQLVQEAAAKKS [S49A;E50A;E51A]

# Second part, the variant before the results:
row,Variant,effect of a mutation on the interaction
1,MFRRLTFAQLLFATVLGIAGGVYIFQPVFEQYAKDQKELKEKAAAVQESEEKKS [M43A;Q44A;L45A],with no effect
2,MFRRLTFAQLLFATVLGIAGGVYIFQPVFEQYAKDQKELKEKMQLAAASEEKKS [V46A;Q47A;E48A],with no effect
3,MFRRLTFAQLLFATVLGIAGGVYIFQPVFEQYAKDQAAAKEKMQLVQESEEKKS [K37A;E38A;L39A],with no effect
4,MFRRLTFAQLLFATVLGIAGGVYIFQPVFAAAAKDQKELKEKMQLVQESEEKKS [E30A;Q31A;Y32A],disrupting interaction strength
5,MFRRLTFAQLLFATVLGIAGGVYIFQPVFEQYAKDQKELKEKMQLVQESEEAAA [K52A;K53A;S54A],with no effect
